The target in data set [1] is T1, α-fructosyl hexapeptide (α-fructosyl-valyl-histidyl-leucyl-threonyl-propyl-glutamic acid).
T1 chain: VHLTPE

In data set [2] the target is T2, α-fructosyl valyl histidine.
T2 chain: VH

B1: CFP-T7 (protein)
chain: MTSNRADTRVIVVGGGGTIGSSTALHLVRSGYAPANITVLDTFEIPSAQSAGHDLNKIMGIRLRNKVDLQMSLEARQMWKEDELFQPFFHNTGRMDCEHTPEGIEDLKKQYQALHDAGAGLEKTHAWLDNEDEILSKMPLLQRDQIQGWKAIWSQDGGWLAAAKAINAIGQFLKERGVKFGFGGAGSFKQPLFDDEGTTCIGVETADGTKYYADKVVLAAGAWSPTLVDLEDQCCSKAWVYAHIQLTPEEAAEYKGVPVVYNGEFGFFFEPDEFGVIKVCDEFPGFSRFKEHQPYGAPSPKRISVPRSHAKHPTDTYPDASEVSIKKAIATFLPRFQDKELFNRALCWCTDTADAALLMCEHPKWKNFILATGDSGHSFKILPNVGKYVVELIEGRLPEEMAYQWRWRPGGDALKSRRAAPPKDLADMPGWKHDPKL
As to B1, in data set [1], the Specific activity (U/mg), 1 mM αF6P came to 0 U/mg; the “ΔA at 751 nm (hydrogen peroxide generated upon oxidation of αF6P) against αF6P concentration” value was “no correlation was observed between ΔA and αF6P concentration”; the αF6P oxidation activity, relative to αFVH oxidation activity designated to be 100 (relative (αFVH = 100)) was 0. In data set [2], this protein yielded a Specific activity (U/mg), 1 mM αFVH of 16.5 U/mg.

B2: CFP-T7-H21 (protein)
chain: MTSNRADTRVIVVGGGGTIGSSTALHLVRSGYAPANITVLDTFEIPSAQSAGHDLNKIMGIDLRNKVDLQMSLEARQMWKEDELFQPFFHNTGRMDCEHTPEGIEKLKKLYQRLHDAGAGLEKTHAWLDNEDEILSKMPLLQRDQIQGWKAIWSQDGGWLAAAKAINAIGQFLKERGVKFGFGGAGSFKQPLFDDEGTTCIGVETADGTKYYADKVVLAAGAWSPTLVDLEDQCCSKAWVYAHIQLTPEEAAEYKGVPVVYNGEFGFFFEPDEFGVIKVCDEFPGFSRFKEHQPYGAPSPKRISVPRSHAKHPTDTYPDASEVSIKKAIATFLPRFQDKELFNRALCWCTDTADAALLMCEHPKWKNFILATGDSGHSFKILPNVGKYVVELIEGRLPEEMAYQWRWRPGGDALKSRRAAPPKDLADMPGWKHDPKL
Take B2: in data set [1], the Specific activity (U/mg), 1 mM αF6P was 0.795 U/mg and the αF6P oxidation activity, relative to αFVH oxidation activity designated to be 100 (relative (αFVH = 100)) was 20.8. For the same protein, the Specific activity (U/mg), 1 mM αFVH in data set [2] is 4.05 U/mg.

B3: CFP-T7-H20 (protein)
chain: MTSNRADTRVIVVGGGGTIGSSTALHLVRSGYAPANITVLDTFEIPSAQSAGHDLNKIMGIDLRNKVDLQMSLEARQMWKEDELFQPFFHNTGRMDCEHTPEGIEKLKKLYQKLHDAGAGLEKTHAWLDNEDEILSKMPLLQRDQIQGWKAIWSQDGGWLAAAKAINAIGQFLKERGVKFGFGGAGSFKQPLFDDEGTTCIGVETADGTKYYADKVVLAAGAWSPTLVDLEDQCCSKAWVYAHIQLTPEEAAEYKGVPVVYNGEFGFFFEPDEFGVIKVCDEFPGFSRFKEHQPYGAPSPKRISVPRSHAKHPTDTYPDASEVSIKKAIATFLPRFQDKELFNRALCWCTDTADAALLMCEHPKWKNFILATGDSGHSFKILPNVGKYVVELIEGRLPEEMAYQWRWRPGGDALKSRRAAPPKDLADMPGWKHDPKL
Take B3: in data set [1], the Specific activity (U/mg), 1 mM αF6P came to 0.85 U/mg; the αF6P oxidation activity ratio (reference, designated to be 100) (relative (CFP-T7-H20 = 100)) is 100; the αF6P oxidation activity, relative to αFVH oxidation activity designated to be 100 (relative (αFVH = 100)) came to 20.5. For the same protein, the Specific activity (U/mg), 1 mM αFVH in data set [2] stood at 4.28 U/mg.

B4: CFP-T7-H2-62N (protein)
chain: MTSNRADTRVIVVGGGGTIGSSTALHLVRSGYAPANITVLDTFEIPSAQSAGHDLNKIMGINLRNKVDLQMSLEARQMWKEDELFQPFFHNTGRMDCEHTPEGIEDLKKLYQALHDAGAGLEKTHAWLDNEDEILSKMPLLQRDQIQGWKAIWSQDGGWLAAAKAINAIGQFLKERGVKFGFGGAGSFKQPLFDDEGTTCIGVETADGTKYYADKVVLAAGAWSPTLVDLEDQCCSKAWVYAHIQLTPEEAAEYKGVPVVYNGEFGFFFEPDEFGVIKVCDEFPGFSRFKEHQPYGAPSPKRISVPRSHAKHPTDTYPDASEVSIKKAIATFLPRFQDKELFNRALCWCTDTADAALLMCEHPKWKNFILATGDSGHSFKILPNVGKYVVELIEGRLPEEMAYQWRWRPGGDALKSRRAAPPKDLADMPGWKHDPKL
Turning to B4, in data set [1], the αF6P oxidation activity ratio, relative to CFP-T7-H2 designated to be 100 (relative (CFP-T7-H2 = 100)) is 120.
